From the supplement of paper PMC10201428
± gives the standard deviation of the averaged measurements.

B1: library; a variant is named by its letters at N, in order (parent)
chain: AATGTTGTTGATGCAACCATAAAGTGATATTTAATAATTATTTATAATCAGCAACTTAACCACAAAACAACCATATATTGATATNTCACAAAACAACCATAANTTGATATTTTTGTGAATCGAGTATTTCAGCAAAACTACTGCAGTAAGAA

Assays:
[1] = variants of: B1; assay: relative integration efficiency (T-LR orientation) vs wild-type transposon end (log2 (normalized fold change)); transposon end mutated: left end; higher = more efficient transposition; conditions: with VchCAST RNA-guided transposition machinery (E. coli BL21(DE3) host, lacZ target)
Outline: (§1)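 Barcode abundances in input plasmids and in genomic integration junctions were obtained by PCR amplification and Illumina sequencing. These came from E. coli BL21(DE3) co-transformed with a T7-driven effector plasmid and a pUC57 donor carrying 1549 left-end or 1849 right-end transposon variants, then plated with 0.1 mM IPTG at 37°C for 18 h. Relative integration efficiency is the output/input fold change, normalised to reference barcodes and log-transformed.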

[2] = variants of: B1; assay: relative integration efficiency (T-RL orientation) vs wild-type transposon end (log2 (normalized fold change)); transposon end mutated: left end; higher = more efficient transposition; conditions: with VchCAST RNA-guided transposition machinery (E. coli BL21(DE3) host, lacZ target)
Outline: as §1

Row | Variant | relative integration efficiency (log2) [1] | relative integration efficiency (log2) [2]
1 | CG C60A C61A A62C C63A | 0.51 ± 0.29 | 0.406 ± 0.095
2 | CG T5A T6A | < -10 | -6.46 ± 0.12
3 | CG G80C A81T | -2.2 ± 1.5 | -2.1 ± 0.85
4 | CG G13T C14A | -1.46 ± 1.2 | -0.416 ± 0.31
5 | CG G115C T116A G117C A118T | 0.334 ± 0.11 | -0.12 ± 0.028
6 | CG C72A A73C | -2.02 ± 0.55 | -2.16 ± 0.91
7 | TG G24A T30A T76A A77G C87T | 0.724 ± 0.54 | 0.0845 ± 0.24
8 | CG C71A C72A A73C T74G | -2.28 ± 1.8 | -2.51 ± 1
9 | CG G24A T30A | 0.342 ± 0.15 | 0.261 ± 0.027
10 | CG C52G A53T | 0.253 ± 0.28 | 0.138 ± 0.048
11 | CG C63A A64C | 0.557 ± 0.37 | -0.135 ± 0.079
12 | CG T12A G13A T30A T32A A77C T86G | -0.499 ± 0.21 | -0.36 ± 0.22
13 | CG C61G A62T | -0.236 ± 0.51 | -0.362 ± 0.074
14 | CG G26C G80C G106C | -5.11 ± 2.5 | -6.9 ± 1.7
15 | CG C97A C98A | -1.76 ± 0.82 | -1.7 ± 0.77
16 | CG G106A | -1.25 ± 1.6 | -0.788 ± 0.47
17 | CG G106C | -2.1 ± 1.4 | -1.81 ± 0.62
18 | CG G106T | -1.19 ± 0.64 | -0.797 ± 0.42
19 | CG C97G C98G A99T T100A | -0.482 ± 0.85 | -1.36 ± 0.79
20 | CG T9G G10T A11C T12G | -1.29 ± 0.52 | -0.645 ± 0.35
21 | CG T3G | 0.394 ± 0.5 | 0.0915 ± 0.044
22 | CG T3A | -0.175 ± 0.58 | -0.148 ± 0.071
23 | CG T3C | 0.718 ± 0.1 | 0.297 ± 0.0045
24 | CG G115C T116A | 0.199 ± 0.12 | -0.00924 ± 0.092

Row | Variant | relative integration efficiency (log2) [1] | relative integration efficiency (log2) [2]
25 | CG T12A G13A T31C A77C T86G | -0.319 ± 0.56 | -0.196 ± 0.058
26 | CG C55A T56G | -0.293 ± 0.89 | 0.0947 ± 0.38
27 | CG C121A A123G G124A T129C G132A A134C A135T A136T A137C C138A C141G G143T C144T | 0.708 ± 0.024 | 0.721 ± 0.23
28 | CG C55T | 0.102 ± 0.26 | -0.123 ± 0.13
29 | CG C55G | 0.245 ± 0.15 | 0.177 ± 0.069
30 | CG C55A | -0.0412 ± 0.7 | 0.0708 ± 0.088
31 | CG G124T T125G | -0.377 ± 0.42 | -0.329 ± 0.048
32 | CG G24T T25G G26T A27C | -2.96 ± 1.7 | -2.31 ± 0.84
33 | CG C61G A62T C63G A64T | 0.0811 ± 0.61 | -0.0813 ± 0.26
34 | CG T9G G10T | -0.0361 ± 0.31 | 0.0751 ± 0.11
35 | CG T12A G13A T30A T31C A77C T86G | -1.07 ± 0.047 | -0.538 ± 0.15
36 | CG G117C A118T | 0.236 ± 0.11 | 0.235 ± 0.026
37 | CG G4C T5A | 0.189 ± 0.31 | 0.0402 ± 0.15
38 | CG G24C T78A T104A | -0.403 ± 0.24 | -0.396 ± 0.19
39 | CG T12A G13A T30A T31C T32A A77C T86G | -0.4 ± 0.61 | -0.303 ± 0.3
40 | CG C63G | 0.324 ± 0.23 | 0.223 ± 0.039
41 | CG C63T | 0.266 ± 0.018 | 0.0804 ± 0.061
42 | CG C63A | 0.438 ± 0.02 | 0.237 ± 0.012
43 | CG G80T | 0.0932 ± 0.91 | -0.44 ± 0.42
44 | CG G80A | -0.967 ± 1.4 | -0.773 ± 0.37
45 | CG G80C | -1.47 ± 0.43 | -2.06 ± 0.66
46 | CG G26C A27T T28A A29T | -1.67 ± 0.28 | -1.58 ± 0.67
47 | CG C52A A53C A54C C55A | 0.277 ± 0.23 | 0.0708 ± 0.21
48 | CG G51T C52A A53C A54C | -0.964 ± 0.62 | -0.488 ± 0.45

Row | Variant | relative integration efficiency (log2) [1] | relative integration efficiency (log2) [2]
49 | CG C60G | 0.358 ± 0.26 | -0.0988 ± 0.017
50 | CG C60A | 0.503 ± 0.15 | 0.0973 ± 0.034
51 | CG C60T | 0.161 ± 0.34 | -0.00379 ± 0.0024
52 | CG G26T G80T G106T | -1.86 ± 1.8 | -2.79 ± 1.3
53 | CG T5G | 0.0272 ± 0.098 | 0.0254 ± 0.14
54 | CG T5C | -0.291 ± 0.23 | -0.319 ± 0.008
55 | CG T5A | -0.149 ± 0.06 | -0.22 ± 0.057
56 | CG G51C C52G | -0.162 ± 0.74 | -0.107 ± 0.11
57 | CG C71T | -0.49 ± 0.49 | -0.408 ± 0.23
58 | CG C71G | -0.452 ± 0.8 | -0.253 ± 0.4
59 | CG C71A | -0.709 ± 0.022 | -0.461 ± 0.26
60 | CG G24C T25A G26C A27T | -2.36 ± 0.61 | -2.38 ± 0.98
61 | CG C89G A90T A91T A92T | -0.0713 ± 0.9 | -0.00767 ± 0.14
62 | CG C87G A88T C89G A90T | 0.251 ± 0.48 | -0.077 ± 0.18
63 | CG C61A A62C C63A A64C | -0.0245 ± 0.0054 | 0.137 ± 0.14
64 | CG G10C | -1.66 ± 0.034 | -0.357 ± 0.19
65 | CG G10A | -0.534 ± 0.039 | -0.083 ± 0.089
66 | CG G10T | -1.38 ± 0.3 | -0.454 ± 0.26
67 | CG T12A G13A T30A T31C T32A T86G | -0.319 ± 0.034 | -0.119 ± 0.27
68 | CG G115T | 0.42 ± 0.24 | 0.238 ± 0.1
69 | CG G115C | 0.709 ± 0.14 | 0.417 ± 0.026
70 | CG G115A | 0.113 ± 0.17 | -0.259 ± 0.26
71 | CG T12A G13A A77C T86G | -0.125 ± 0.28 | -0.319 ± 0.14
72 | CG G117T A118C A119C T120G C121A G122T A123C G124T T125G | 0.16 ± 0.029 | 0.0955 ± 0.074

Row | Variant | relative integration efficiency (log2) [1] | relative integration efficiency (log2) [2]
73 | CG C61A A62C | 0.514 ± 0.034 | 0.443 ± 0.054
74 | CG T12C | -0.943 ± 0.57 | -0.0642 ± 0.048
75 | CG T12A | 0.00533 ± 0.2 | -0.099 ± 0.056
76 | CG T12G | -0.01 ± 0.2 | -0.917 ± 0.57
77 | CG C97T | -0.391 ± 0.74 | -0.324 ± 0.13
78 | CG C97G | -0.468 ± 0.14 | -0.455 ± 0.23
79 | CG C97A | -0.467 ± 1.2 | -0.235 ± 0.37
80 | CG G13C C14G A15T A16T | -1.69 ± 1.2 | -1.03 ± 0.47
81 | CG C63G A64T | 0.148 ± 0.19 | 0.1041 ± 0.00033
82 | CG G51C | -0.456 ± 0.66 | -0.42 ± 0.19
83 | CG G51T | 0.637 ± 0.29 | 0.00628 ± 0.18
84 | CG G51A | 0.634 ± 0.19 | 0.302 ± 0.085
85 | CG G117T A118C A119C T120G | 0.0571 ± 0.28 | 0.0586 ± 0.085
86 | CG C61A | 0.321 ± 0.14 | 0.0593 ± 0.091
87 | CG C61G | -0.0835 ± 0.46 | -0.191 ± 0.019
88 | CG C61T | 0.151 ± 0.41 | -0.122 ± 0.029
89 | CG G51T C52A | 0.348 ± 0.34 | 0.159 ± 0.19
90 | CG C89A A90C | 0.0275 ± 0.49 | -0.181 ± 0.15
91 | CG T8A T9A G10C A11T | < -10 | -6.573 ± 0.021
92 | CG T12G G13T | -0.641 ± 0.4 | -0.29 ± 0.15
93 | CG G115T T116G G117T A118C | -0.131 ± 0.19 | -0.00966 ± 0.025
94 | CG G13C C14G | -0.831 ± 0.62 | -0.232 ± 0.36
95 | CG C52A A53C | 0.0739 ± 0.63 | -0.177 ± 0.1
96 | TG G24A T30A T76A T78A T84A C87A | 0.236 ± 0.09 | 0.0157 ± 0.17

Row | Variant | relative integration efficiency (log2) [1] | relative integration efficiency (log2) [2]
97 | CG C98G A99T T100A A101T | -1.8 ± 0.21 | -2 ± 0.73
98 | CG T20A A21T | -0.406 ± 0.45 | -0.483 ± 0.31
99 | CG C72A A73C T74G A75C | -2.39 ± 1.6 | -2.27 ± 0.64
100 | CG T3G G4T | 0.453 ± 0.4 | 0.121 ± 0.041
101 | CG T12A G13A T30A T31C T32A A77C | -1.73 ± 0.73 | -0.517 ± 0.24
102 | TG G24A T30A A70C T76A T86G | 1.23 ± 0.52 | 0.692 ± 0.36
103 | CG C68G A69T | -0.877 ± 0.31 | -1.02 ± 0.41
104 | CG G26C A27T | -3.33 ± 1.1 | -2.12 ± 0.85
105 | CG C89G A90T | 0.739 ± 0.17 | 0.378 ± 0.24
106 | CG C98A A99C T100G A101C | -1.33 ± 0.029 | -2.27 ± 0.92
107 | CG C72G A73T | -1.6 ± 1.4 | -1.44 ± 0.73
108 | CG C87A | -0.42 ± 0.76 | -0.276 ± 0.053
109 | CG C87T | -0.29 ± 0.12 | -0.0232 ± 0.071
110 | CG C87G | 0.0991 ± 0.48 | -0.138 ± 0.019
111 | CG G51C C52G A53T A54T | -0.796 ± 0.93 | -0.34 ± 0.37
112 | CG T12A G13A T30A A77C T86G | -0.394 ± 0.45 | -0.113 ± 0.12
113 | CG C68A A69C | -0.147 ± 0.86 | -0.266 ± 0.23
114 | CG C68A A69C A70C C71A | -1.37 ± 0.95 | -1.67 ± 0.63
115 | CG T3A G4C | -0.231 ± 0.33 | 0.0698 ± 0.073
116 | CG G106C A107T T108A A109T | -1.44 ± 0.63 | -1.36 ± 0.7
